Experimental findings from paper PMC4422728 are described below.

For the assay, the target named is β-amyloid (Aβ) protein from brains of rTg9191 mice (human). The experiment in a line: SDS-PAGE and Western blot under denaturing conditions; water-soluble fraction of brain extracts (three-step protocol); samples heated at 95°C with SDS and β-mercaptoethanol, 10-20% Tris-Tricine gels, immunoblot for Aβ; mice of 4, 12, 21, 24 and 26 months.

With “β-amyloid (Aβ) protein from brains of rTg9191 mice (peptide)”, the stoichiometry N was found to be 2.
